Data on 38 sequences can be found in the supplement of paper PMC7877785.

The data set can be described thus: self-splicing fitness, log relative to wild type (ln ratio); higher = more splicing; Tetrahymena group I intron in knt gene, E. coli kanamycin selection, DiMSum; sequences stand for … in CUCUCU…GGAGGGAAAAGUUAUCAGGCAUGCACCUGGUAGCUAGUCUUUAAACCAAUAGAUUGCAUCGGUUUAAAAGGCAAGACCGUCAAAUUGCGGGAAAGGGGUCAACAGCCGUUCAGUACCAAGUCUCAGGGGAAACUUUGAGAUGGCCUUGCAAAGGGUAUGGUAAUAAGCUGACGGACAUGGUCCUAACCACGCAGCCAAGUCCUAAGUCAACAGAUCUUCUGUUGAUAUGGAUGCAGUUCACAGACUAAAUGUCGGUCGGGGAAGAUGUAUUCUUCUCAUAAGAUAUAGUCGGACCUCUCCUUAAUGGGAGCUAGCGGAUGAAGUGAUGCAACACUGGAGCCGCUGGGAACUAAUUUGUAUGCGAAAGUAUAUUGAUUAGUUUUGGAGUACUCGUGGUCG
In outline: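 Colonies from six replicate transformations of E. coli BL21(DE3) were pooled and amplicon-sequenced on an Illumina HiSeq 2500. The library placed an intron with all eight P1ex-region nucleotides randomised inside the knt kanamycin-resistance gene on pET-22b(+), and cells grew overnight at 37°C or 30°C on LB agar with or without 25 μg/mL kanamycin (plus 100 μg/mL carbenicillin, 50 μM IPTG, 0.2% rhamnose). Fitness is the DiMSum error-weighted combination of wild-type-normalised replicate fold changes, kanamycin versus none.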

± gives the uncertainty stated by the source.

In the case of GACCAGCAAUAUUACGUAGG, the “self-splicing fitness (ln)” value by setting is: (30 °C) -2.31 ± 0.075; (37 °C) -1.62 ± 0.09.

Turning to AUCUAGCAAUAUUACGAGGA, the “self-splicing fitness (ln)” value (30 °C) was -2.83 ± 0.32 and the “self-splicing fitness (ln)” value (37 °C) is -2.01 ± 0.21.

As for CGGGAGCAAUAUUACGAGCC, the “self-splicing fitness (ln)” value (30 °C) was -0.749 ± 0.46.

For CCAUAGCAAUAUUACGUGUU, the “self-splicing fitness (ln)” value was -3.47 ± 0.14 (30 °C) and -3.36 ± 0.16 (37 °C).

Regarding UACAAGCAAUAUUACGUACG, the “self-splicing fitness (ln)” value is, setting by setting: (30 °C) -3.9 ± 0.22; (37 °C) -1.3 ± 0.13.

Take GCUCAGCAAUAUUACGCAUG: the “self-splicing fitness (ln)” value (30 °C) was -1.66 ± 0.1 and the “self-splicing fitness (ln)” value (37 °C) is -1.49 ± 0.1.

Consider AUAGAGCAAUAUUACGGGUU, for which the “self-splicing fitness (ln)” value is -2.43 ± 0.16 (30 °C) and -1.1 ± 0.17 (37 °C).

Consider AGAGAGCAAUAUUACGCACG, for which, under “30 °C”, the “self-splicing fitness (ln)” value is -2.18 ± 0.38.

For CAUUAGCAAUAUUACGCCCG, the “self-splicing fitness (ln)” value (30 °C) was found to be 0.404 ± 0.13 and the “self-splicing fitness (ln)” value (37 °C) is 0.579 ± 0.17.

Consider UUGGAGCAAUAUUACGUAAA, for which the “self-splicing fitness (ln)” value is -2.9 ± 0.29 (30 °C) and -0.99 ± 0.25 (37 °C).

On to GGCAAGCAAUAUUACGGGGA, for which the “self-splicing fitness (ln)” value runs as follows: (30 °C) -3.51 ± 0.26; (37 °C) -1.31 ± 0.3.

Take GCAAAGCAAUAUUACGCAGC: the “self-splicing fitness (ln)” value by setting is: (30 °C) -0.0889 ± 0.15; (37 °C) -2.46 ± 0.39.

Take UUCUAGCAAUAUUACGCACC: the “self-splicing fitness (ln)” value was -2.54 ± 0.18 (30 °C) and -1.94 ± 0.23 (37 °C).

With CGUAAGCAAUAUUACGUCGU, the “self-splicing fitness (ln)” value by setting is: (30 °C) -3.41 ± 0.16; (37 °C) -1.63 ± 0.15.

For CCAAAGCAAUAUUACGGGUU, the “self-splicing fitness (ln)” value (30 °C) was -2.96 ± 0.15 and the “self-splicing fitness (ln)” value (37 °C) is -2.5 ± 0.16.

On to CUCUAGCAAUAUUACGGGGU, for which the “self-splicing fitness (ln)” value (30 °C) is -3.87 ± 0.25 and the “self-splicing fitness (ln)” value (37 °C) is -3.39 ± 0.32.

As to UACGAGCAAUAUUACGGUAC, the “self-splicing fitness (ln)” value runs as follows: (30 °C) -3.89 ± 0.3; (37 °C) -2.76 ± 0.34.

Consider AAUCAGCAAUAUUACGCAUG, for which the “self-splicing fitness (ln)” value is, setting by setting: (30 °C) -0.409 ± 0.038; (37 °C) 0.349 ± 0.058.

With AGGCAGCAAUAUUACGCCGU, the “self-splicing fitness (ln)” value was -1.92 ± 0.19 (30 °C) and -0.237 ± 0.17 (37 °C).

Turning to UUAUAGCAAUAUUACGGAGA, the “self-splicing fitness (ln)” value was -2.04 ± 0.27 (30 °C) and -1.89 ± 0.32 (37 °C).

For the sequence UGUCAGCAAUAUUACGCUGU, the “self-splicing fitness (ln)” value runs as follows: (30 °C) -3.1 ± 0.23; (37 °C) -1.63 ± 0.19.

For the sequence UAGGAGCAAUAUUACGGAAG, the “self-splicing fitness (ln)” value is -2.94 ± 0.18 (30 °C) and -1.51 ± 0.26 (37 °C).

For UCGCAGCAAUAUUACGAUCG, the “self-splicing fitness (ln)” value runs as follows: (30 °C) -0.735 ± 0.092; (37 °C) -0.359 ± 0.12.

In the case of CCUUAGCAAUAUUACGUUUC, the “self-splicing fitness (ln)” value (30 °C) is -1.94 ± 0.18 and the “self-splicing fitness (ln)” value (37 °C) was -1.11 ± 0.46.

Regarding ACGUAGCAAUAUUACGAUAA, the “self-splicing fitness (ln)” value is, setting by setting: (30 °C) -1.52 ± 0.13; (37 °C) -1.51 ± 0.18.

Turning to GGCUAGCAAUAUUACGACAC, the “self-splicing fitness (ln)” value was -0.572 ± 0.11 (30 °C) and 0.6 ± 0.16 (37 °C).

Consider CUCAAGCAAUAUUACGAAUU, for which the “self-splicing fitness (ln)” value by setting is: (30 °C) -4.18 ± 0.28; (37 °C) -3.03 ± 0.29.

In the case of AUAGAGCAAUAUUACGACCU, the “self-splicing fitness (ln)” value is -1.41 ± 0.23 (30 °C) and -0.988 ± 0.21 (37 °C).

In the case of CGAUAGCAAUAUUACGGCCG, the “self-splicing fitness (ln)” value is, setting by setting: (30 °C) -0.641 ± 0.087; (37 °C) -0.184 ± 0.15.

As to UAAGAGCAAUAUUACGGUUC, the “self-splicing fitness (ln)” value (30 °C) was -2.19 ± 0.21 and the “self-splicing fitness (ln)” value (37 °C) is -2.14 ± 0.46.

GUAGAGCAAUAUUACGUUCA: the “self-splicing fitness (ln)” value runs as follows: (30 °C) -0.476 ± 0.1; (37 °C) -0.627 ± 0.11.

As for GCGAAGCAAUAUUACGUGCG, the “self-splicing fitness (ln)” value is -2.31 ± 0.16 (30 °C) and -1.5 ± 0.18 (37 °C).

UGGAAGCAAUAUUACGGUUU: the “self-splicing fitness (ln)” value (30 °C) was -4.66 ± 0.34 and the “self-splicing fitness (ln)” value (37 °C) was -2.59 ± 0.21.

Consider GAACAGCAAUAUUACGUUGG, for which the “self-splicing fitness (ln)” value (30 °C) was -2.51 ± 0.08 and the “self-splicing fitness (ln)” value (37 °C) was -1.94 ± 0.1.

For the sequence ACCCAGCAAUAUUACGCUCG, the “self-splicing fitness (ln)” value runs as follows: (30 °C) -3.65 ± 0.33; (37 °C) -2.23 ± 0.26.

CUGGAGCAAUAUUACGGGCA: for the setting “30 °C”, the “self-splicing fitness (ln)” value was -1.06 ± 0.38.

UGGCAGCAAUAUUACGUUUA: the “self-splicing fitness (ln)” value (30 °C) was -0.478 ± 0.084 and the “self-splicing fitness (ln)” value (37 °C) amounted to 0.426 ± 0.096.

On to CCGGAGCAAUAUUACGGAAC, for which the “self-splicing fitness (ln)” value by setting is: (30 °C) -3.29 ± 0.47; (37 °C) -1.67 ± 0.36.
